This note sets out measurements from the supplement of paper PMC10567573.

To fix the notation:
B1: CDS2 (parent)
chain: IHSIALSTFASLIGPFGGFFASGF
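Further: lentivirally expressed fusions sorted by FACS into six bins by GFP to DsRed ratio, PSI derived from sequencing read proportions per bin multiplied by bin number.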

Variants of B1 are the subject of this series. The series can be described thus: protein stability index of a GFP-peptide fusion (GPS, HEK-293T) (PSI 1-6); higher = more stable. Conditions: c terminus: a fixed tail appended.
For IHSIALSTFASLIGPPGGFFASGF [F16P], the protein stability index was determined as 2.02.
For IHSIALSTFASLIGPMGGFFASGF [F16M] the value was 3.82.
Next, IHSIALSTFASLIGPHGGFFASGF [F16H]: 2.84; IHSIALSTFASLIGPIGGFFASGF [F16I]: 4.33; IHSIALSTFASLIGPWGGFFASGF [F16W]: 2.49.
Next, IHSIALSTFASLIGPVGGFFASGF [F16V]: 2.96; IHSIALSTFASLIGPLGGFFASGF [F16L]: 1.91.
For the variant IHSIALSTFASLIGPAGGFFASGF [F16A], the protein stability index is 3.6.
As to IHSIALSTFASLIGPQGGFFASGF [F16Q], the protein stability index was 3.71.
Next, IHSIALSTFASLIGPDGGFFASGF [F16D]: 3.08; IHSIALSTFASLIGPKGGFFASGF [F16K]: 3.11.
Next, IHSIALSTFASLIGPRGGFFASGF [F16R]: 2.29.
For IHSIALSTFASLIGPFAGFFASGF [G17A] the value was 2.41; for IHSIALSTFASLIGPFLGFFASGF [G17L], 3.48.
As to IHSIALSTFASLIGPFIGFFASGF [G17I], the protein stability index was determined as 2.98.
For IHSIALSTFASLIGPFCGFFASGF [G17C] the value was 3.58; for IHSIALSTFASLIGPFVGFFASGF [G17V], 2.5; for IHSIALSTFASLIGPFYGFFASGF [G17Y], 2.06.
For IHSIALSTFASLIGPFHGFFASGF [G17H] the value was 3.56; for IHSIALSTFASLIGPFTGFFASGF [G17T], 4.3.
Next, IHSIALSTFASLIGPFKGFFASGF [G17K]: 2.22; IHSIALSTFASLIGPFFGFFASGF [G17F]: 2.74.
For IHSIALSTFASLIGPFSGFFASGF [G17S], the protein stability index was found to be 4.37.
Regarding IHSIALSTFASLIGPFEGFFASGF [G17E], the protein stability index stood at 3.13.
For IHSIALSTFASLIGPFPGFFASGF [G17P] the value was 2.78.
Turning to IHSIALSTFASLIGPFRGFFASGF [G17R], the protein stability index turned out to be 2.63.
Turning to IHSIALSTFASLIGPFMGFFASGF [G17M], the protein stability index was found to be 2.12.
With IHSIALSTFASLIGPFDGFFASGF [G17D], the protein stability index was 3.88.
Next, IHSIALSTFASLIGPFQGFFASGF [G17Q]: 2.83; IHSIALSTFADLIGPFGGFFASGF [S11D]: 2.9; IHSIALSTFAVLIGPFGGFFASGF [S11V]: 1.89.
Next, IHSIALSTFALLIGPFGGFFASGF [S11L]: 2.8.
Next, IHSIALSTFAFLIGPFGGFFASGF [S11F]: 3.22; IHSIALSTFAQLIGPFGGFFASGF [S11Q]: 3.26; IHSIALSTFAGLIGPFGGFFASGF [S11G]: 2.9.
On to IHSIALSTFAKLIGPFGGFFASGF [S11K], for which the protein stability index is 3.22.
For IHSIALSTFACLIGPFGGFFASGF [S11C] the value was 2.7; for IHSIALSTFAMLIGPFGGFFASGF [S11M], 3.71; for IHSIALSTFAALIGPFGGFFASGF [S11A], 2.88.
For IHSIALSTFAWLIGPFGGFFASGF [S11W] the value was 5.33.
For IHSIALSTFANLIGPFGGFFASGF [S11N] the value was 2.33.
IHSIALSTFATLIGPFGGFFASGF [S11T]: the protein stability index came out at 2.57.
For IHSIALSTFARLIGPFGGFFASGF [S11R] the value was 2.81.
For IHSIALSTFAILIGPFGGFFASGF [S11I] the value was 3.73.
For IHSIALSTFAYLIGPFGGFFASGF [S11Y] the value was 4.15; for IHSIALSTFAELIGPFGGFFASGF [S11E], 3.35; for IHSIALSTFAHLIGPFGGFFASGF [S11H], 2.75.
Turning to IHSIALSTFASLPGPFGGFFASGF [I13P], the protein stability index turned out to be 2.92.
With IHSIALSTFASLSGPFGGFFASGF [I13S], the protein stability index stood at 2.8.
For IHSIALSTFASLQGPFGGFFASGF [I13Q] the value was 2.45; for IHSIALSTFASLNGPFGGFFASGF [I13N], 2; for IHSIALSTFASLHGPFGGFFASGF [I13H], 3.22.
For IHSIALSTFASLKGPFGGFFASGF [I13K] the value was 2.49.
For IHSIALSTFASLLGPFGGFFASGF [I13L] the value was 2.64; for IHSIALSTFASLEGPFGGFFASGF [I13E], 2.6; for IHSIALSTFASLTGPFGGFFASGF [I13T], 2.77.
Take IHSIALSTFASLYGPFGGFFASGF [I13Y]: the protein stability index was 2.89.
For IHSIALSTFASLWGPFGGFFASGF [I13W] the value was 3.97; for IHSIALSTFASLGGPFGGFFASGF [I13G], 2.48.
Next, IHSIALSTFASLFGPFGGFFASGF [I13F]: 3.52.
For IHSIALSTFASLAGPFGGFFASGF [I13A] the value was 2.25; for IHSIALVTFASLIGPFGGFFASGF [S7V], 3.
Consider IHSIALRTFASLIGPFGGFFASGF [S7R], for which the protein stability index was 3.4.
Next, IHSIALTTFASLIGPFGGFFASGF [S7T]: 2.71; IHSIALITFASLIGPFGGFFASGF [S7I]: 2.94.
For IHSIALFTFASLIGPFGGFFASGF [S7F] the value was 3.48; for IHSIALGTFASLIGPFGGFFASGF [S7G], 3.09; for IHSIALHTFASLIGPFGGFFASGF [S7H], 3.45.
Regarding IHSIALNTFASLIGPFGGFFASGF [S7N], the protein stability index stood at 2.5.
Next, IHSIALCTFASLIGPFGGFFASGF [S7C]: 1.83; IHSIALQTFASLIGPFGGFFASGF [S7Q]: 2.64.
In the case of IHSIALYTFASLIGPFGGFFASGF [S7Y], the protein stability index stood at 2.65.
For IHSIALMTFASLIGPFGGFFASGF [S7M] the value was 3.09; for IHSIALPTFASLIGPFGGFFASGF [S7P], 2.88.
For the variant IHSIALWTFASLIGPFGGFFASGF [S7W], the protein stability index was 3.82.
For IHSIALATFASLIGPFGGFFASGF [S7A] the value was 2.22; for IHSIALSTFASLIGPFGCFFASGF [G18C], 2.46.
For IHSIALSTFASLIGPFGAFFASGF [G18A] the value was 2.37; for IHSIALSTFASLINPFGGFFASGF [G14N], 1.69; for IHSIALSTFASLIWPFGGFFASGF [G14W], 1.74.
Next, IHSIALSTFASLILPFGGFFASGF [G14L]: 3.66; IHSIALSTFASLIEPFGGFFASGF [G14E]: 2.76.
Consider IHSIALSTFASLIVPFGGFFASGF [G14V], for which the protein stability index was 2.64.
For IHSIALSTFASLIIPFGGFFASGF [G14I] the value was 2.82.
IHSIALSTFASLIYPFGGFFASGF [G14Y]: the protein stability index worked out at 2.64.
For IHSIALSTFASLIDPFGGFFASGF [G14D] the value was 3.05; for IHSIALSTFASLIPPFGGFFASGF [G14P], 2.67; for IHSIALSTFASLIQPFGGFFASGF [G14Q], 2.15.
Next, IHSIALSTFASLIRPFGGFFASGF [G14R]: 2.97.
For IHSIALSTFASLITPFGGFFASGF [G14T] the value was 2.79.
For the variant IHSIALSTFASLICPFGGFFASGF [G14C], the protein stability index was 2.05.
For IHSIALSTFASLIKPFGGFFASGF [G14K] the value was 3.34; for IHSIALSTFASLIMPFGGFFASGF [G14M], 2.48.
Consider IHSIALSTFASLIAPFGGFFASGF [G14A], for which the protein stability index stood at 3.37.
